Experimental findings from patent publication US20240254255A1 (Regeneron, published 2024) are described below.

In general, Kd refers to a measure of binding affinity in units of concentration. The term koff denotes a measure of how fast the partners let go of each other. Broadly, the kon is the second-order rate constant of association. A high value points to faster complex formation.

Experiment [1] concerns the target T1, hErbB2-MMH (human HER2 ectodomain with C-terminal myc-myc-hexahistidine tag) (human, UniProt P04626 23-652).
T1 construct: also called Her2 ECD; Her2 protein
Kind of experiment: SPR (MASS-2), ADC captured on anti-human Fc, hErbB2-MMH in solution, 25 C. The method, then: (§1) Equilibrium dissociation constants (KD values) for hErbB2.mmh binding to anti-HER2×HER2 antibodies conjugated with either M830 or M1 were determined using a real-time surface plasmon resonance biosensor assay on a MASS-2 instrument. The MASS-2 sensor surface was derivatized by amine coupling with a monoclonal mouse anti-human Fc antibody (REGN2567) to capture anti-HER2×HER2 ADC and parent unmodified antibodies expressed with human constant regions. […] Human hErbB2 was prepared in-house expressing a C-terminal myc-myc-hexahistidine tag (hErbB2-MMH). […] Association of hErbB2-MMH to each of the captured ADCs and monoclonal antibodies was monitored for 3 minutes. Subsequently, hErbB2-MMH dissociation was monitored for 10 minutes in HBS-EP running buffer. Anti-human Fc surface was regenerated by a brief injection of 20 mM H₃PO₄. All binding kinetic experiments were performed at 25° C.
Kinetic association (kₐ) and dissociation (Kd) rate constants were determined by fitting the real-time sensorgrams to a 1:1 binding model using Scrubber 2.0c curve fitting software. All sensorgrams were double referenced by subtracting buffer injection sensorgram signal from the corresponding analyte sensorgram, thereby removing artifacts caused by dissociation of the antibody from the capture surface. Binding dissociation equilibrium constants (KD) and dissociative half-lives (t½) were calculated from the kinetic rate constants as: […]

For experiment [2], the target named is T2, human HER2 (ErbB2) expressed on the surface of cell lines and primary cells (human, UniProt P04626 23-1255). As to the kind of experiment: cell-based or functional assay.
In experiment [3] the target is T2, human HER2 (ErbB2) expressed on the …. Kind of experiment: cell-based or functional assay. The source holds these as a separate data set.
For experiment [4], the target named is T1, hErbB2-MMH (human HER2 ectodomain with …). As to the kind of experiment: SPR (MASS-2), antibody captured on anti-human Fc, hErbB2-MMH in solution, 25 C. The protocol: as §1
Kinetic association (kₐ) and dissociation (Kd) rate constants were determined by fitting the real-time sensorgrams to a 1:1 binding model using Scrubber 2.0c curve fitting software. […] Binding dissociation equilibrium constants (KD) and dissociative half-lives (t½) were calculated from the kinetic rate constants as: […]

B1: BsAb1-MCC-Maytansinoid A (bispecific antibody, human IgG4 S228P, kappa)
heavy 1: EVQLVESGGGLAQPGGSLRLSCAASGFSISDYEIHWVRQVPGKGLEWVSGIGSAGNTYYPGAVKGRFTISRENAKNSLYLQVNSLTVGDTAVYYCARVWSPLYYFGLDVWGQGTTVTVSSASTKGPSVFPLAPCSRSTSESTAALGCLVKDYFPEPVTVSWNSGALTSGVHTFPAVLQSSGLYSLSSVVTVPSSSLGTKTYTCNVDHKPSNTKVDKRVESKYGPPCPPCPAPEFLGGPSVFLFPPKPKDTLMISRTPEVTCVVVDVSQEDPEVQFNWYVDGVEVHNAKTKPREEQFNSTYRVVSVLTVLHQDWLNGKEYKCKVSNKGLPSSIEKTISKAKGQPREPQVYTLPPSQEEMTKNQVSLTCLVKGFYPSDIAVEWESNGQPENNYKTTPPVLDSDGSFFLYSRLTVDKSRWQEGNVFSCSVMHEALHNRFTQKSLSLSPGK
heavy 2: not shown
light: not shown
modifications: SMCC-DM1 (M1) conjugate, attachment residues not stated
notes: Antibody-drug conjugate of BsAb1; also called BsAb1 conjugated with M1 (SMCC-DM1)
In the case of B1, in experiment [1], the “Antigen Bound (RU)” value worked out at 93.6 RU, binding was put at a Kd of 0.512 nM and the “t1/2” value was 32.7 min. Moreover, in experiment [2], the “IC50 of cell killing, JIMT1 cells (Cell Titer Glow, 6 days)” value was found to be 7 nM; the “IC50 of cell killing, MDAMB361 cells (Cell Titer Glow, 6 days)” value amounted to 0.05 nM; the “IC50 of cell killing, MDAMB453 cells (Cell Titer Glow, 6 days)” value turned out to be 0.1 nM; the “IC50 of cell killing, SKBR3 cells (Cell Titer Glow, 6 days)” value is 0.02 nM. Moreover, the “IC50 of cell killing, ZR751 cells (Cell Titer Glow, 6 days)” value in experiment [2] is 6 nM.

B2: BsAb1-Tubulysin 1A-LP (Anti HER2 BsAb1-PEG3-N3-Tubulysin 1A-LP) (bispecific antibody, human IgG4 S228P, kappa)
heavy 1: B1 heavy 1
heavy 2: not shown
light: not shown
modifications: deglycosylated (PNGase F); Q295 carries azido-PEG3-amine clicked to Tubulysin 1A-LP
notes: Site-specific antibody-drug conjugate of BsAb1; also called HER2xHER2-M830
Take B2: in experiment [1], the “Antigen Bound (RU)” value was determined as 114 RU and the “t1/2” value came to 33.5 min. In experiment [3], the “IC50 of cell killing, MDAMB231 cells (Cell Titer Glow, 6 days)” value was 40 nM; the “IC50 of cell killing, MDAMB468 cells (Cell Titer Glow, 6 days)” value turned out to be 50 nM; the “IC50 of cell killing, T47D cells (Cell Titer Glow, 6 days)” value is 8 nM; the “IC50 of cell killing, primary breast (mammary epithelial) cells (Cell Titer Glow, 6 days)” value stood at 25 nM. Also, in experiment [3], the “IC50 of cell killing, primary lung epithelial cells (Cell Titer Glow, 6 days)” value was > 67 nM; the “IC50 of cell killing, primary myocardial cells (Cell Titer Glow, 6 days)” value was found to be 9 nM; the “IC50 of cell killing, primary prostate epithelial cells (Cell Titer Glow, 6 days)” value stood at 30 nM. Also, in experiment [2], the “IC50 of cell killing, JIMT1 cells (Cell Titer Glow, 6 days)” value came out at 0.07 nM; the “IC50 of cell killing, MDAMB361 cells (Cell Titer Glow, 6 days)” value came to 0.003 nM; the “IC50 of cell killing, MDAMB453 cells (Cell Titer Glow, 6 days)” value was 0.02 nM; the “IC50 of cell killing, SKBR3 cells (Cell Titer Glow, 6 days)” value is 0.004 nM. In addition, the “IC50 of cell killing, ZR751 cells (Cell Titer Glow, 6 days)” value in experiment [2] came out at 0.06 nM.

B3: BsAb1-CAMPT1 (Anti-HER2 BsAb1-substituted alkyl amine-(N3)2-CAMPT-1-LP) (bispecific antibody, human IgG4 S228P, kappa)
heavy 1: B1 heavy 1
heavy 2: not shown
light: not shown
modifications: Q295 carries a bis azido-alkyl substituted amine (bisSP1) clicked to CAMPT-1-LP
notes: Antibody-drug conjugate of BsAb1; also called BsAb1-Camp1
As for B3, in experiment [1], the “Antigen Bound (RU)” value turned out to be 117 RU; the affinity, expressed as Kd, was 0.472 nM; the “t1/2” value was determined as 41 min.

B4: H4H17325D (BsAb1), HER2 x HER2 bispecific antibody (bispecific antibody, human IgG4 S228P, kappa)
heavy 1: B1 heavy 1
heavy 2: not shown
light: not shown
notes: Human IgG4 bispecific with a common light chain; also called bispecific antibody 1
As to B4, the “t1/2” value in experiment [4] came to 29 min.

B5: BsAb2-Tubulysin 1A-LP (Anti HER2 BsAb2-PEG3-N3-Tubulysin 1A-LP) (bispecific antibody, human IgG4 S228P, kappa)
heavy 1: QVQLVESGGGVVQPGRSLRLSCEASGFTFSGYALHWVRQAPGKGLEWVTVISYDGSDKFYADSVKGRFTISRDNSKNTLYLQMNSLRTEDTALYYCAKDWGTYHWNYGHYNYVMDVWGQGTTVTVSSASTKGPSVFPLAPCSRSTSESTAALGCLVKDYFPEPVTVSWNSGALTSGVHTFPAVLQSSGLYSLSSVVTVPSSSLGTKTYTCNVDHKPSNTKVDKRVESKYGPPCPPCPAPEFLGGPSVFLFPPKPKDTLMISRTPEVTCVVVDVSQEDPEVQFNWYVDGVEVHNAKTKPREEQFNSTYRVVSVLTVLHQDWLNGKEYKCKVSNKGLPSSIEKTISKAKGQPREPQVYTLPPSQEEMTKNQVSLTCLVKGFYPSDIAVEWESNGQPENNYKTTPPVLDSDGSFFLYSRLTVDKSRWQEGNVFSCSVMHEALHNRFTQKSLSLSPGK
heavy 2: not shown
light: not shown
modifications: deglycosylated (PNGase F); Q295 carries azido-PEG3-amine clicked to Tubulysin 1A-LP
notes: Site-specific antibody-drug conjugate of BsAb2; also called H4H17087D-Tubulysin 1A-LP
On to B5, for which, in experiment [1], the “Antigen Bound (RU)” value came out at 72.7 RU, the Kd was ≤ 0.0431 nM, the koff was ≤ 1e-05 s⁻¹ and the kon is 232000 M⁻¹ s⁻¹. For the same molecule, the “t1/2” value in experiment [1] is ≥ 1160 min. Moreover, in experiment [3], the “IC50 of cell killing, MDAMB231 cells (Cell Titer Glow, 6 days)” value is 50 nM; the “IC50 of cell killing, MDAMB468 cells (Cell Titer Glow, 6 days)” value was 67 nM; the “IC50 of cell killing, T47D cells (Cell Titer Glow, 6 days)” value was determined as 8 nM; the “IC50 of cell killing, primary breast (mammary epithelial) cells (Cell Titer Glow, 6 days)” value is 20 nM. In experiment [3], the “IC50 of cell killing, primary lung epithelial cells (Cell Titer Glow, 6 days)” value was > 67 nM; the “IC50 of cell killing, primary myocardial cells (Cell Titer Glow, 6 days)” value was found to be 30 nM; the “IC50 of cell killing, primary prostate epithelial cells (Cell Titer Glow, 6 days)” value was > 67 nM.

B6: BsAb2-CAMPT1 (bispecific antibody, human IgG4 S228P, kappa)
heavy 1: B5 heavy 1
heavy 2: not shown
light: not shown
modifications: Q295 carries a bis azido-alkyl substituted amine (bisSP1) clicked to CAMPT-1-LP
notes: Antibody-drug conjugate of BsAb2; also called BsAb2-Camp1
With B6, in experiment [1], the “Antigen Bound (RU)” value came to 77 RU, the Kd was ≤ 0.0388 nM, the koff is ≤ 1e-05 s⁻¹ and the kon came out at 258000 M⁻¹ s⁻¹. In addition, the “t1/2” value in experiment [1] amounted to 1160 min.

B7: BsAb2-MCC-Maytansinoid A (bispecific antibody, human IgG4 S228P, kappa)
heavy 1: B5 heavy 1
heavy 2: not shown
light: not shown
modifications: SMCC-DM1 (M1) conjugate, attachment residues not stated
notes: Antibody-drug conjugate of BsAb2; also called BsAb2 conjugated with M1 (SMCC-DM1)
With B7, in experiment [1], the “Antigen Bound (RU)” value is 82.8 RU, the Kd is 0.0469 nM, the koff turned out to be 1.02e-05 s⁻¹ and the kon turned out to be 218000 M⁻¹ s⁻¹. In addition, the “t1/2” value in experiment [1] was found to be 1130 min.
